# Source: patent publication US20200069813A1 (S M DISCOVERY GROUP, published 2020)
# Where no end group is shown, it is not given here. 5‑FAM = fluorescein amidite
# B1: FAM-CGY peptide (5-FAM-Cys-Gly-Tyr-Arg-Pro-Val-His-Asn-Ile-Arg-Gly-His-Trp-Ala-Pro-Gly) (peptide)
# peptide: {5‑FAM}-CGYRPVHNIRGHWAPG
# modifications: also: forms assemblies with intermolecular Cys disulfides
# notes: Synthetic peptide conjugate; also called FAM-CGY nanoparticles; FAM-CGY peptidic nanoparticles
# How the values were obtained:
# [1] = biological target: T1, receptor for advanced glycation end products (RAGE) (human, UniProt Q15109 23-404); assay: Uptake by hCMEC/D3 cells after RAGE siRNA knock-down, FACS and fluorescence microscopy
# T1 construct: whole, on cells; Endogenous receptor on hCMEC/D3 cells; No purified receptor was used; also called RAGE receptor
# [2] = biological target: T2, transferrin receptor (TFRC) (human, UniProt P02786 1-760); assay: Uptake by hCMEC/D3 cells after TFRC siRNA knock-down, FACS and fluorescence microscopy
# T2 construct: whole, on cells; Endogenous receptor on hCMEC/D3 cells; No purified receptor was used
# Description: Cell nucleus stained with Hoechest 33342, Insert bars=50 μm.
# The commercial transfection reagent siPORT Amine/TFRC siRNA complex was incubated for 72 h in hCMEC/D3 cells including an unspecific siRNA (siControl) as control.
# T2 sequence (P02786 whole entry): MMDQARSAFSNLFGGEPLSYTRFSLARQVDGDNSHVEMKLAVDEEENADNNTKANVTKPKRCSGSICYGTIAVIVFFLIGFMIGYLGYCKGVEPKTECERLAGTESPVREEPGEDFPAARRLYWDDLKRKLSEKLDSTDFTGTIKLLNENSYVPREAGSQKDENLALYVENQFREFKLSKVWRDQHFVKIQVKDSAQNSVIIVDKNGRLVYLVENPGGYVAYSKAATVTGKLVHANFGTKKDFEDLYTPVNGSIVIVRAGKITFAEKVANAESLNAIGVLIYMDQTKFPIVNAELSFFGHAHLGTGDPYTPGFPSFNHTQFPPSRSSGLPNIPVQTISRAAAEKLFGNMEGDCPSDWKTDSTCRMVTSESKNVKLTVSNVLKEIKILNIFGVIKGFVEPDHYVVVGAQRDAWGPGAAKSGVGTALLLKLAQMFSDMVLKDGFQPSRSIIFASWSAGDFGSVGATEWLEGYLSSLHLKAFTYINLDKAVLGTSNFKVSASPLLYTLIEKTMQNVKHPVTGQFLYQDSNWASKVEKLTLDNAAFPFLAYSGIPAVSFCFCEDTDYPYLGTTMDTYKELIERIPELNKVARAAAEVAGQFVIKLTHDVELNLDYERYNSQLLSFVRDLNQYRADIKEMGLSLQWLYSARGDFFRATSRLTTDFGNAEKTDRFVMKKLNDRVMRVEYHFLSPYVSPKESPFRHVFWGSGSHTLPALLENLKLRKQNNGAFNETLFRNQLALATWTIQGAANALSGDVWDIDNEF
# T1 sequence (Q15109 23-404): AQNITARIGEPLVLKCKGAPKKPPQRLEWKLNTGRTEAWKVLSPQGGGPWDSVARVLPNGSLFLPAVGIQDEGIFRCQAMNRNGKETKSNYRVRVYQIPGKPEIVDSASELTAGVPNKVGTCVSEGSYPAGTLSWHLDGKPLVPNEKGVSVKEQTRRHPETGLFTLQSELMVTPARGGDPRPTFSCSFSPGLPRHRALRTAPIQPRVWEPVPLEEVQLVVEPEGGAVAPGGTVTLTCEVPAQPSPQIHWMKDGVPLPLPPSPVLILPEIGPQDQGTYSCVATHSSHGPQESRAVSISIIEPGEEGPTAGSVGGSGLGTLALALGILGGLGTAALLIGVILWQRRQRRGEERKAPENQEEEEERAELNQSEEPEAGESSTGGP
binder,measurement,setting,value
B1,binding result,[1],binds
same,binding result,[2],binds
